Test results reported in patent US20130058937A1 (Hoffmann-La Roche, published 2013).

Tests used:
[1] = target: T1, human MCSP (Melanoma-associated Chondroitin Sulfate Proteoglycan), expressed on tumor cells (human, UniProt Q6UVK1 30-2322); experiment: FACS on WM266-4 cells, FITC/PE anti-human Fc secondary
T1 construct: whole, on cells; also called huMCSP; Chondroitin Sulfate Proteoglycan 4
Experimental: (§1) Binding of the different bispecific constructs to CD3 on Jurkat (ATCC #TIB-152) cells, and the respective tumor antigen MCSP on WM266-4 cells or CEA on LS174-T cells, was determined by FACS. Briefly, cells were harvested, counted and checked for viability. 0.15-0.2 million cells per well were plated in a round-bottom 96-well plate and incubated with the indicated concentration of the bispecific constructs and controls for 30 min at 4° C. For a better comparison, the constructs were normalized to same molarity. Cells were washed with PBS containing 0.1% BSA once. After incubation with a FITC- or PE-conjugated secondary antibody for 30 min at 4° C., bound constructs were detected using a FACSCantoII (Software FACS Diva). A FITC- or PE-conjugated AffiniPure F(ab′)2 Fragment goat anti-human IgG Fcγ Fragment Specific (Jackson Immuno Research Lab #109-096-098/working solution 1:20, or #109-116-170/working solution 1:80, respectively) was used. Unless otherwise indicated, cells were fixed with 100 μl/well fixation buffer (BD #554655) for 15 min at 4° C. in the dark, centrifuged for 6 min at 400×g and kept in 200 μl/well PBS containing 0.1% BSA until analysis. EC50 values were calculated using the GraphPad Prism 5 software.
While binding of both construct to MCSP on cells was comparably good, the binding of the “inverted” construct to CD3 was reduced compared to the other construct.

[2] = target: T1, human MCSP (Melanoma-associated …); experiment: cell-based or functional assay
[3] = target: T2, human CD3, expressed by Jurkat cells (human, UniProt P07766 23-207); experiment: FACS on Jurkat cells, FITC/PE anti-human Fc secondary
T2 construct: whole, on cells; The assay presents the whole CD3 complex on Jurkat T cells; also called human CD3 on cells; huCD3
Experimental: as §1, with “Unless otherwise indicated, cells were fixed with 100 μl/well fixation buffer (BD #554655) for 15 min at 4° C. in the dark, centrifuged for 6 min at 400×g and kept in 200 μl/well PBS containing 0.1% BSA until analysis.” left out
As a control, the equivalent maximum concentration of the corresponding IgGs and the background staining due to the labeled 2ndary antibody (goat anti-human FITC-conjugated AffiniPure F(ab′)2 Fragment, Fcγ Fragment-specific, Jackson Immuno Research Lab #109-096-098) were assessed as well. […]

T1 sequence (Q6UVK1 30-2322): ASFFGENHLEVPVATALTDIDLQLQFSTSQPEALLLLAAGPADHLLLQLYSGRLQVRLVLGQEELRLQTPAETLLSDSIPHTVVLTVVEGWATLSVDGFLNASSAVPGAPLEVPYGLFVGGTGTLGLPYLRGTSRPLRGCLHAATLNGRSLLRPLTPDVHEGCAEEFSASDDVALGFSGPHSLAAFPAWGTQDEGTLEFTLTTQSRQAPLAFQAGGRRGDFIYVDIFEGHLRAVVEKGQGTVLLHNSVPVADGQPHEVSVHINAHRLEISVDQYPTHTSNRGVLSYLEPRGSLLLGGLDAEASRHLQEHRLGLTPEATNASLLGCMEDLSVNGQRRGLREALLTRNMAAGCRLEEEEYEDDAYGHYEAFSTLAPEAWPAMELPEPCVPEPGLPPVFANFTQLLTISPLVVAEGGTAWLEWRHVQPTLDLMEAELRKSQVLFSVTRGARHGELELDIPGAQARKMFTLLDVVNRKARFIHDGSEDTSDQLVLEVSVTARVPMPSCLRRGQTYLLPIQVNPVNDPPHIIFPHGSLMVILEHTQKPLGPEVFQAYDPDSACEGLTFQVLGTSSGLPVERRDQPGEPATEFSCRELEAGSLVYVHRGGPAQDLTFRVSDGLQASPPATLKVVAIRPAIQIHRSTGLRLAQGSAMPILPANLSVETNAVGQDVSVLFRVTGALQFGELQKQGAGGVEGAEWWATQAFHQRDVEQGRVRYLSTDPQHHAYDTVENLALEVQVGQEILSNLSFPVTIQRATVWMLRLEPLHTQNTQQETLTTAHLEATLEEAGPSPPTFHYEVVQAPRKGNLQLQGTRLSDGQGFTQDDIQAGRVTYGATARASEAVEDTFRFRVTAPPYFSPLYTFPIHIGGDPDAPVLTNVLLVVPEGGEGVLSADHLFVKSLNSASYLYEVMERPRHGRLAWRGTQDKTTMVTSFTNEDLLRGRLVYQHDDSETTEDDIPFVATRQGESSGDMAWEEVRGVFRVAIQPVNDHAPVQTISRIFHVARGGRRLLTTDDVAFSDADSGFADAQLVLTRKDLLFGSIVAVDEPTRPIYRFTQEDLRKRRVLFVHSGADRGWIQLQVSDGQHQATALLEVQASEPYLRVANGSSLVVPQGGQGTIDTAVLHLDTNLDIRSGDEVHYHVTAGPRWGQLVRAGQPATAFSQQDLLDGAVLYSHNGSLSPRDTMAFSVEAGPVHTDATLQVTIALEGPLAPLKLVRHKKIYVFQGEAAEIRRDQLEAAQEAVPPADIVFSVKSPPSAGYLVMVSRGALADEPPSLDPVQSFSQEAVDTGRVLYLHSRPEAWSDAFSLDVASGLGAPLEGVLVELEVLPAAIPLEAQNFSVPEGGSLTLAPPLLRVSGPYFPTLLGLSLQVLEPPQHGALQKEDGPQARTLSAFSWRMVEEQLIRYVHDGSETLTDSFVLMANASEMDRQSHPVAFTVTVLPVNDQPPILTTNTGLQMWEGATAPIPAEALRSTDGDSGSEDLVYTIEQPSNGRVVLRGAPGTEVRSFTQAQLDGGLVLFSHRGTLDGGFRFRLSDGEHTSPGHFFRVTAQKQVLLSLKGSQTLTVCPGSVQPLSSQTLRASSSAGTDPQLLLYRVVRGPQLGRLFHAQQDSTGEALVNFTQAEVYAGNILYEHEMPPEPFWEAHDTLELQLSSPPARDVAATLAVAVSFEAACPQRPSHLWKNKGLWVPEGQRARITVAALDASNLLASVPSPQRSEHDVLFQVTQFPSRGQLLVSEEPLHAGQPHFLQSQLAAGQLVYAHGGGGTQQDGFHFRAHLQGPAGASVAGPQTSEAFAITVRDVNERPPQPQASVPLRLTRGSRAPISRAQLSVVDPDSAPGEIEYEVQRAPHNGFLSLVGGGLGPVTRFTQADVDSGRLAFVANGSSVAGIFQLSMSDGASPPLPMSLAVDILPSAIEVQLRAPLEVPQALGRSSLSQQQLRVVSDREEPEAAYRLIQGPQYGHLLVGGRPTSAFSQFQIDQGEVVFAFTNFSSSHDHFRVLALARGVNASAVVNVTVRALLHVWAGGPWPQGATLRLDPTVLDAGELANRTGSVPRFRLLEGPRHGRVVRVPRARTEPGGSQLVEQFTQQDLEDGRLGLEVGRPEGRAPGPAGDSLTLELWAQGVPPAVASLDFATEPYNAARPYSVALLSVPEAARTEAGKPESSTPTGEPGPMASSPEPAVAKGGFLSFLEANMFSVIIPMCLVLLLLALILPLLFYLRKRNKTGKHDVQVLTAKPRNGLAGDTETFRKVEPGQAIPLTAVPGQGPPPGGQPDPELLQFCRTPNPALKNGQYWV
T2 sequence (P07766 23-207): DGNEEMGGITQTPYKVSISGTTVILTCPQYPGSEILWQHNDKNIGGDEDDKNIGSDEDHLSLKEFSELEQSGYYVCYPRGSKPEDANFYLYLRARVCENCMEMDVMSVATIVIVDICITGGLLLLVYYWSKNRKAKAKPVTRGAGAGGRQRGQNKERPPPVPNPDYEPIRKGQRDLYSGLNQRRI

B1: 2+1 IgG Crossfab (N-terminal); VL/VH exchange (MCSP (LC007)/huCD3) (bispecific antibody)
chain 1: DIQMTQSPSSLSASVGDRVTITCRASQDIRNYLNWYQQKPGKAPKLLIYYTSRLESGVPSRFSGSGSGTDYTLTISSLQPEDFATYYCQQGNTLPWTFGQGTKVEIKSSASTKGPSVFPLAPSSKSTSGGTAALGCLVKDYFPEPVTVSWNSGALTSGVHTFPAVLQSSGLYSLSSVVTVPSSSLGTQTYICNVNHKPSNTKVDKKVEPKSCGGGGSGGGGSEVQLQESGPGLVKPSQSLSLTCSVTGYSITSGYYWNWIRQFPGNKLEWMGYITYDGSNNYNPSLKNRISITRDTSKNQFFLKLNSVTTEDTATYYCADFDYWGQGTTLTVSSASTKGPSVFPLAPSSKSTSGGTAALGCLVKDYFPEPVTVSWNSGALTSGVHTFPAVLQSSGLYSLSSVVTVPSSSLGTQTYICNVNHKPSNTKVDKKVEPKSCDKTHTCPPCPAPEAAGGPSVFLFPPKPKDTLMISRTPEVTCVVVDVSHEDPEVKFNWYVDGVEVHNAKTKPREEQYNSTYRVVSVLTVLHQDWLNGKEYKCKVSNKALGAPIEKTISKAKGQPREPQVCTLPPSRDELTKNQVSLSCAVKGFYPSDIAVEWESNGQPENNYKTTPPVLDSDGSFFLVSKLTVDKSRWQQGNVFSCSVMHEALHNHYTQKSLSLSPGK
chain 2: EVQLVESGGGLVQPGGSLRLSCAASGYSFTGYTMNWVRQAPGKGLEWVALINPYKGVSTYNQKFKDRFTISVDKSKNTAYLQMNSLRAEDTAVYYCARSGYYGDSDWYFDVWGQGTLVTVSSASVAAPSVFIFPPSDEQLKSGTASVVCLLNNFYPREAKVQWKVDNALQSGNSQESVTEQDSKDSTYSLSSTLTLSKADYEKHKVYACEVTHQGLSSPVTKSFNRGEC
chain 3: DIVLTQSPSSLSASLGDRVTISCSASQGIRNYLNWYQQRPDGTVKLLIYYTSSLHSGVPSRFSGSGSGTDYSLTISNLEPEDIATYYCQQYSKLPWTFGGGTKLEIKRTVAAPSVFIFPPSDEQLKSGTASVVCLLNNFYPREAKVQWKVDNALQSGNSQESVTEQDSKDSTYSLSSTLTLSKADYEKHKVYACEVTHQGLSSPVTKSFNRGEC
chain 4: not shown
notes: Two MCSP Fabs, one CD3 Crossfab fused to the N-terminus of one Fab; also called anti-MCSP/anti-huCD3; CD3-MCSP 2+1 IgG Crossfab (N-terminal)
EC50 [1]: 0.95 nM
EC50 of killing (LDH release) of MV-3 cells, human PBMCs, E:T 10:1, 21 h [2]: 0.0092 nM
EC50 of killing (LDH release) of WM266-4 cells, human PBMCs, E:T 10:1, 21 h [2]: 0.0331 nM
EC50 [3]: 1.66 nM

B2: 2+1 IgG Crossfab (N-terminal), inverted; CL/CH1 exchange (MCSP (LC007)/huCD3) (bispecific antibody)
chain 1: DIVLTQSPSSLSASLGDRVTISCSASQGIRNYLNWYQQRPDGTVKLLIYYTSSLHSGVPSRFSGSGSGTDYSLTISNLEPEDIATYYCQQYSKLPWTFGGGTKLEIKRTVAAPSVFIFPPSDEQLKSGTASVVCLLNNFYPREAKVQWKVDNALQSGNSQESVTEQDSKDSTYSLSSTLTLSKADYEKHKVYACEVTHQGLSSPVTKSFNRGEC
chain 2: DIQMTQSPSSLSASVGDRVTITCRASQDIRNYLNWYQQKPGKAPKLLIYYTSRLESGVPSRFSGSGSGTDYTLTISSLQPEDFATYYCQQGNTLPWTFGQGTKVEIKSSASTKGPSVFPLAPSSKSTSGGTAALGCLVKDYFPEPVTVSWNSGALTSGVHTFPAVLQSSGLYSLSSVVTVPSSSLGTQTYICNVNHKPSNTKVDKKVEPKSC
chain 3: EVQLQESGPGLVKPSQSLSLTCSVTGYSITSGYYWNWIRQFPGNKLEWMGYITYDGSNNYNPSLKNRISITRDTSKNQFFLKLNSVTTEDTATYYCADFDYWGQGTTLTVSSASTKGPSVFPLAPSSKSTSGGTAALGCLVKDYFPEPVTVSWNSGALTSGVHTFPAVLQSSGLYSLSSVVTVPSSSLGTQTYICNVNHKPSNTKVDKKVEPKSCDKTHTCPPCPAPEAAGGPSVFLFPPKPKDTLMISRTPEVTCVVVDVSHEDPEVKFNWYVDGVEVHNAKTKPREEQYNSTYRVVSVLTVLHQDWLNGKEYKCKVSNKALGAPIEKTISKAKGQPREPQVCTLPPSRDELTKNQVSLSCAVKGFYPSDIAVEWESNGQPENNYKTTPPVLDSDGSFFLVSKLTVDKSRWQQGNVFSCSVMHEALHNHYTQKSLSLSPGK
chain 4: not shown
notes: also called the inverted construct; CD3/MCSP 2+1 IgG Crossfab (N-terminal), inverted
EC50 [1]: 0.57 nM
EC50 [3]: 6.1 nM

B3: CD3-MCSP 1+1 CrossMab; CL/CH1 exchange (MCSP (LC007)/huCD3) (bispecific antibody)
chain 1: DIVLTQSPSSLSASLGDRVTISCSASQGIRNYLNWYQQRPDGTVKLLIYYTSSLHSGVPSRFSGSGSGTDYSLTISNLEPEDIATYYCQQYSKLPWTFGGGTKLEIKRTVAAPSVFIFPPSDEQLKSGTASVVCLLNNFYPREAKVQWKVDNALQSGNSQESVTEQDSKDSTYSLSSTLTLSKADYEKHKVYACEVTHQGLSSPVTKSFNRGEC
chain 2: DIQMTQSPSSLSASVGDRVTITCRASQDIRNYLNWYQQKPGKAPKLLIYYTSRLESGVPSRFSGSGSGTDYTLTISSLQPEDFATYYCQQGNTLPWTFGQGTKVEIKSSASTKGPSVFPLAPSSKSTSGGTAALGCLVKDYFPEPVTVSWNSGALTSGVHTFPAVLQSSGLYSLSSVVTVPSSSLGTQTYICNVNHKPSNTKVDKKVEPKSC
chain 3: not shown
chain 4: EVQLQESGPGLVKPSQSLSLTCSVTGYSITSGYYWNWIRQFPGNKLEWMGYITYDGSNNYNPSLKNRISITRDTSKNQFFLKLNSVTTEDTATYYCADFDYWGQGTTLTVSSASTKGPSVFPLAPSSKSTSGGTAALGCLVKDYFPEPVTVSWNSGALTSGVHTFPAVLQSSGLYSLSSVVTVPSSSLGTQTYICNVNHKPSNTKVDKKVEPKSCDKTHTCPPCPAPEAAGGPSVFLFPPKPKDTLMISRTPEVTCVVVDVSHEDPEVKFNWYVDGVEVHNAKTKPREEQYNSTYRVVSVLTVLHQDWLNGKEYKCKVSNKALGAPIEKTISKAKGQPREPQVCTLPPSRDELTKNQVSLSCAVKGFYPSDIAVEWESNGQPENNYKTTPPVLDSDGSFFLVSKLTVDKSRWQQGNVFSCSVMHEALHNHYTQKSLSLSPGK
EC50 of killing (LDH release) of MV-3 cells, human PBMCs, E:T 10:1, 21 h [2]: 0.0884 nM
EC50 of killing (LDH release) of WM266-4 cells, human PBMCs, E:T 10:1, 21 h [2]: 0.0539 nM

B4: CD3-MCSP 1+1 IgG Crossfab (N-terminal) (SEQ ID NOs 1, 3, 4, 86) (bispecific antibody)
chain 1: DIQMTQSPSSLSASVGDRVTITCRASQDIRNYLNWYQQKPGKAPKLLIYYTSRLESGVPSRFSGSGSGTDYTLTISSLQPEDFATYYCQQGNTLPWTFGQGTKVEIKSSASTKGPSVFPLAPSSKSTSGGTAALGCLVKDYFPEPVTVSWNSGALTSGVHTFPAVLQSSGLYSLSSVVTVPSSSLGTQTYICNVNHKPSNTKVDKKVEPKSCGGGGSGGGGSEVQLQESGPGLVKPSQSLSLTCSVTGYSITSGYYWNWIRQFPGNKLEWMGYITYDGSNNYNPSLKNRISITRDTSKNQFFLKLNSVTTEDTATYYCADFDYWGQGTTLTVSSASTKGPSVFPLAPSSKSTSGGTAALGCLVKDYFPEPVTVSWNSGALTSGVHTFPAVLQSSGLYSLSSVVTVPSSSLGTQTYICNVNHKPSNTKVDKKVEPKSCDKTHTCPPCPAPEAAGGPSVFLFPPKPKDTLMISRTPEVTCVVVDVSHEDPEVKFNWYVDGVEVHNAKTKPREEQYNSTYRVVSVLTVLHQDWLNGKEYKCKVSNKALGAPIEKTISKAKGQPREPQVCTLPPSRDELTKNQVSLSCAVKGFYPSDIAVEWESNGQPENNYKTTPPVLDSDGSFFLVSKLTVDKSRWQQGNVFSCSVMHEALHNHYTQKSLSLSPGK
chain 2: EVQLVESGGGLVQPGGSLRLSCAASGYSFTGYTMNWVRQAPGKGLEWVALINPYKGVSTYNQKFKDRFTISVDKSKNTAYLQMNSLRAEDTAVYYCARSGYYGDSDWYFDVWGQGTLVTVSSASVAAPSVFIFPPSDEQLKSGTASVVCLLNNFYPREAKVQWKVDNALQSGNSQESVTEQDSKDSTYSLSSTLTLSKADYEKHKVYACEVTHQGLSSPVTKSFNRGEC
chain 3: DIVLTQSPSSLSASLGDRVTISCSASQGIRNYLNWYQQRPDGTVKLLIYYTSSLHSGVPSRFSGSGSGTDYSLTISNLEPEDIATYYCQQYSKLPWTFGGGTKLEIKRTVAAPSVFIFPPSDEQLKSGTASVVCLLNNFYPREAKVQWKVDNALQSGNSQESVTEQDSKDSTYSLSSTLTLSKADYEKHKVYACEVTHQGLSSPVTKSFNRGEC
chain 4: not shown
EC50 of killing (LDH release) of MV-3 cells, human PBMCs, E:T 10:1, 21 h [2]: 0.0409 nM
EC50 of killing (LDH release) of WM266-4 cells, human PBMCs, E:T 10:1, 21 h [2]: 0.0284 nM
